# Laboratory results reported in patent USRE47103 (AGENSYS, dated 2018).
# T1: 158P1D7 protein expressed on the cell surface (human, UniProt Q9H5Y7 27-841)
# T1 construct: No signal peptide limits are stated; also called SLITRK6; SLITRK-6
# T1 sequence: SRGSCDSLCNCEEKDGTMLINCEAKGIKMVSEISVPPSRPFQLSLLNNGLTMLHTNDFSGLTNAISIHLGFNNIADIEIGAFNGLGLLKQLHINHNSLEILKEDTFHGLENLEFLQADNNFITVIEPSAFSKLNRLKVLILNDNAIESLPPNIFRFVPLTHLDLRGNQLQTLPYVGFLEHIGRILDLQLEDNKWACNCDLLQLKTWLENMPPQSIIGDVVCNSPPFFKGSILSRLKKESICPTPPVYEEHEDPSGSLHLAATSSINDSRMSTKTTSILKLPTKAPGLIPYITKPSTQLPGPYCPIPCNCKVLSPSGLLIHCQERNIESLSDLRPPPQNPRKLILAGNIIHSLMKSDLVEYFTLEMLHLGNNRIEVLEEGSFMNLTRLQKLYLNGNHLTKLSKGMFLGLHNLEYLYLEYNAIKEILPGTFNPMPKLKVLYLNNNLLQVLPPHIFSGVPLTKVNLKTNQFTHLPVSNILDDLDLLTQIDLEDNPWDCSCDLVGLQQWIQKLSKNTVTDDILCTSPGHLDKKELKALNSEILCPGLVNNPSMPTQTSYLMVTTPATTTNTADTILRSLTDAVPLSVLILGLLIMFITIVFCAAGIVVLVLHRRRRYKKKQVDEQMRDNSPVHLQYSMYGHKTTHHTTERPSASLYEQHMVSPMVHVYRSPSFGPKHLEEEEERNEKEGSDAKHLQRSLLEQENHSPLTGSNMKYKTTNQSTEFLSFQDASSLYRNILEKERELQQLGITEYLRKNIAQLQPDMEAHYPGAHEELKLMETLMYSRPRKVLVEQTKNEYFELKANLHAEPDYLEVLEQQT
# B1: Ha15-10ac12vcMMAE (other)
# heavy: QVQLVESGGGVVQPGRSLRLSCAASGFTFSSYGMHWVRQAPGKGLEWVAVIWYDGSNQYYADSVKGRFTISRDNSKNTLFLQMHSLRAEDTAVYYCARGLTSGRYGMDVWGQGTTVTVSSASTKGPSVFPLAPCSRSTSESTAALGCLVKDYFPEPVTVSWNSGALTSGVHTFPAVLQSSGLYSLSSVVTVPSSNFGTQTYTCNVDHKPSNTKVDKTVERKCCVECPPCPAPPVAGPSVFLFPPKPKDTLMISRTPEVTCVVVDVSHEDPEVQFNWYVDGVEVHNAKTKPREEQFNSTFRVVSVLTVVHQDWLNGKEYKCKVSNKGLPAPIEKTISKTKGQPREPQVYTLPPSREEMTKNQVSLTCLVKGFYPSDIAVEWESNGQPENNYKTTPPMLDSDGSFFLYSKLTVDKSRWQQGNVFSCSVMHEALHNHYTQKSLSLSPGK
# light: DIVMTQSPLSLPVTPGEPASISCRSSQSLLLSHGFNYLDWYLQKPGQSPQLLIYLGSSRASGVPDRFSGSGSGTDFTLKISRVEAEDVGLYYCMQPLQIPWTFGQGTKVEIKRTVAAPSVFIFPPSDEQLKSGTASVVCLLNNFYPREAKVQWKVDNALQSGNSQESVTEQDSKDSTYSLSSTLTLSKADYEKHKVYACEVTHQGLSSPVTKSFNRGEC
# modifications: vcMMAE (Val-Cit linker with monomethyl auristatin E) on cysteine sulfur atoms after partial reduction of disulfides with TCEP; positions not given; vcMMAE (Val-Cit linker with monomethyl auristatin E) on cysteine sulfur atoms after partial reduction of disulfides with TCEP; positions not given; preferred p between 3.5 and 3.7 drugs per antibody
# notes: also called 158P1D7 ADC; Ha15ac12vcMMAE
# B2: 158P1D7 MAb Ha15-10ac12 (antibody, human IgG2, kappa, V domains shown)
# VH: QVQLVESGGGVVQPGRSLRLSCAASGFTFSSYGMHWVRQAPGKGLEWVAVIWYDGSNQYYADSVKGRFTISRDNSKNTLFLQMHSLRAEDTAVYYCARGLTSGRYGMDVWGQGTTVTVSS
# VL: DIVMTQSPLSLPVTPGEPASISCRSSQSLLLSHGFNYLDWYLQKPGQSPQLLIYLGSSRASGVPDRFSGSGSGTDFTLKISRVEAEDVGLYYCMQPLQIPWTFGQGTKVEIKR
# notes: Fully human IgG2 kappa antibody from XenoMouse; It was tested both as material purified from the hybridoma and as recombinant material from CHO-K1SV cells; also called Ha15-10ac12 MAb
# Assays:
# [1] = biological target: T1, 158P1D7 protein expressed on the cell …; assay: FACS saturation binding on SW780 cells, one site binding fit (Graphpad Prism)
# [2] = biological target: T1, 158P1D7 protein expressed on the cell …; assay: binding to 158P1D7 expressing cells; method not given
Binder,Kd [1] [pM],binding result [2]
B1,5,–
B2,–,binds
